Laboratory results from patent publication US20150353933, “APTAMER AGAINST MIDKINE AND APPLICATIONS THEREOF” (RIBOMIC INC., published 2015).

T1: midkine (MK) (Homo sapiens, UniProt P21741 P21741:21-143)
T1 sequence: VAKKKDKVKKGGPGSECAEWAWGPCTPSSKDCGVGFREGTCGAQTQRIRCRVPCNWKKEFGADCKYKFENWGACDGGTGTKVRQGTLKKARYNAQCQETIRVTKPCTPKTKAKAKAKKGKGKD

T2: midkine (AP-MK) (Homo sapiens, UniProt P21741 P21741:23-143)
T2 chain: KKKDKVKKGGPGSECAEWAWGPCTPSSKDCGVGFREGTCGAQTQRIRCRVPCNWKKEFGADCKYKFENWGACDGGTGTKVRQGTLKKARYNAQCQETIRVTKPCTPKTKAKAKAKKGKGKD


Key:
midkine (MK) [1] = target: T1, midkine (MK); test: SPR; strongly binds; 0.5 uM MK analyte; solution A (Na, K, Ca, Mg, Tris pH 7.6); details: tags: produced in yeast
Method: (§1) The binding activities of the oligonucleotides shown by SEQ ID NO:1 to 6 obtained in Examples 1 and 2 for MK were evaluated by a surface plasmon resonance method. The measurements were performed using BIAcore2000, manufactured by BIAcore. The sensor chip used was the SA chip, which had streptavidin immobilized thereon. Bound thereto was about 1000 RU of a 16-nucleotide Poly dT with biotin bound to the 5′ end thereof. […] 70 μL of MK for analyte, prepared at 0.5 μM, was injected.

midkine (MK) [2] = target: T1, midkine (MK); test: SPR; strongly binds; 0.5 uM MK analyte; solution A; details: tags: produced in yeast
Method: as §1

midkine (MK) [3] = target: T1, midkine (MK); test: SPR; confirmed MK binding, as in Example 3; details: tags: produced in yeast
Method: as §1
Those aptamers were evaluated by the surface plasmon resonance method in the same manner as in Example 3, and they were confirmed to have MK binding activity.

midkine (AP-MK) [4] = target: T2, midkine (AP-MK); test: inhibition; AP-MK binding to HepG2, 500 nM aptamer; details: tags: alkaline phosphatase fusion, APtag-5 vector (GenHunter), 293T culture supernatant
Method: (§2) Using the above-mentioned AP-MK, a binding inhibitory experiment relative to TNB1 cell, which is a human neuroblastoma cell, was performed. TNB1 cells were seeded at 1×10⁵ cells/well on a 6-well plate coated with collagen I. The next day, the cells were washed with 1 mL of HBHA (HBSS+0.5 mg/mL BSA+20 mM HEPES pH 7.0), 1 U/mL AP or AP-MK, and further, the aptamer shown in SEQ ID NO: 7-1 at a final concentration of 100 nM were added and the mixture was maintained at room temperature for 90 min. After washing 5 times with 1 mL of HBHA, 200 μL of Cell Lysis Buffer (manufactured by GenHunter) was added and the mixture was stirred for 5 min. The cells were scraped with a Scraper and placed in an Eppendorf tube, vortexed for 10 sec and centrifuged at 15000 rpm for 2 min. The supernatant was recovered, and heated at 65° C. for 10 min to inactivate endogenous AP. Using 50 μL, color development was performed in the same manner as above (15 min) and the activity of AP was calculated.
An experiment similar to the above was performed using HepG2 cells which are human liver cancer-derived cells. It is already known that MK is deeply involved in the growth and inhibition of apoptosis of HepG2 cells (Ohuchida et al., Cancer 100, 2430-2436, 2004; Dai et al., World J. Gastroenterol. 15, 1966-1972, 2009). When the aptamer was added to the system, the binding of AP-MK and HepG2 was inhibited (Table 1).

midkine (AP-MK) [5] = target: T2, midkine (AP-MK); test: inhibition; AP-MK binding to TNB1 cells; details: tags: alkaline phosphatase fusion, APtag-5 vector (GenHunter), 293T culture supernatant
Method: as §2
(§3) An altered form of SEQ ID NO: 7-1 was produced, and AP-MK binding inhibitory experiment was performed using HepG2 and TNB1 cells and in the same manner as above. The sequences of the altered forms actually produced are shown below. While Poly dA for BIAcore measurement is added to the 3′-terminus of the aptamers shown in SEQ ID NO: 9 and SEQ ID NO: 9-1-5, an influence on the activity is not expected. The 50% inhibitory concentration (IC₅₀) was determined from the concentrations at two, above and below points sandwiching the 50% inhibitory activity (Table 2).

midkine (AP-MK) [6] = target: T2, midkine (AP-MK); test: inhibition; AP-MK binding to HepG2 cells; details: tags: alkaline phosphatase fusion, APtag-5 vector (GenHunter), 293T culture supernatant
Method: as §2, §3

Binder	binding result (midkine (MK) [3])	activity (midkine (AP-MK) [4]) [% inhibition]	IC50 (midkine (AP-MK) [6]) [nM]	other results
SEQ ID NO: 1 (ssRNA, 2'-F pyrimidines; 16-nt poly A at 3' end for SPR) RNA: GGGAGAGGAGAAGAGGAAGCUAUCGCAAUGGUGAGUGGUUUAUCCGCCUGCGCAUGGUUAGAGGACAGGAAUGAGGA				binding result (midkine (MK) [1]): binds
SEQ ID NO: 2 (ssRNA, 2'-F pyrimidines; 16-nt poly A at 3' end for SPR) RNA: GGGACACAAUGGACGUCUGUGUGGUUUAUCCGGAUGUCCGUCGUCCUCUGUCAUGUAACGGCCGACAUGAGAG				binding result (midkine (MK) [2]): binds
GUCUGUGUGGUUUAUCCGGAC (ssRNA, 5' 80PEG4ts; 3' idT; 2'-OMe at G1,G9,G10,U13,G18,G19,A20; 2'-F at other pyrimidines except C21 (unmodified as printed); 2'-OH at G5,G7,A14) [SEQ ID NO: 8-2]	binds	61		
GUCUGUGUGGUUUAUCCGGAC (ssRNA, 5' 80PEG4gs; 3' idT; 2'-OMe at G1,G9,G10,U13,G18,G19,A20; 2'-F at other pyrimidines except C21 (unmodified as printed); 2'-OH at G5,G7,A14) [SEQ ID NO: 8-3]	binds	65		
GUCUGUGUGGUUUAUCCGGAC (ssRNA, 5' 80PEG4ts; 3' idT; 2'-OMe at 1-3,8-10,13,18-21; 2'-F at U4,U6,U11,U12,U15,C16,C17; 2'-OH at G5,G7,A14) [SEQ ID NO: 8-4]	binds	58		
GUCUGUGUGGUUUAUCCGGAC (ssRNA, 5' 80PEG4gs; 3' idT; 2'-OMe at 1-3,8-10,13,18-21; 2'-F at U4,U6,U11,U12,U15,C16,C17; 2'-OH at G5,G7,A14) [SEQ ID NO: 8-5]	binds	61		
GCCAUCGCAAUGGUGAGUGGUUUAUCCGCCUGCGCAUGGC (ssRNA, 2'-OMe at 1-3 and 38-40; 2'-F at all other pyrimidines; other purines 2'-OH) [SEQ ID NO: 7-1]	binds	93	6	IC50 (midkine (AP-MK) [5]): 18 nM
GCCAUCGCAAUGGUGAGUGGUUUAUCCGCCUGCGCAUGGC (ssRNA, 5' 40PEG2ts; 3' idT; 2'-OMe at 1-3 and 38-40; 2'-F at all other pyrimidines) [SEQ ID NO: 7-2]			4.9	IC50 (midkine (AP-MK) [5]): 26 nM
GCCAUCGCAAUGGUGAGUGGUUUAUCCGCCUGCGCAUGGC (ssRNA, 5' 40PEG2ts; 3' idT; 2'-OMe at 1-13,19,20,23,28,30-40; 2'-F at U14,U18,U21,U22,U25,C26,C27,C29; 2'-OH at G15,A16,G17,A24) [SEQ ID NO: 7-3]			1.7	IC50 (midkine (AP-MK) [5]): 11 nM
SEQ ID NO: 3 (ssRNA, 2'-F pyrimidines; 16-nt poly A at 3' end for SPR) RNA: GGGACACAAUGGACGUCUGUGUGGUUUAUCCGGAUGUCCGUCGUCCUCUGUCGUGUAACGGCCGACAUGAGAG				binding result (midkine (MK) [2]): binds
GCCAUCGCAAUGGUGAGUGGUUUAUCCGCCUGCGCAUGGC (ssRNA, 5' 40PEG2ts; 3' idT; 2'-OMe at C2,C3,C40 and all purines except G15,A16,G17,A24 (2'-OH); 2'-F at all other pyrimidines) [SEQ ID NO: 7-4]			3.6	IC50 (midkine (AP-MK) [5]): 18 nM
GCCAUCGCAAUGGUGAGUGGUUUAUCCGCCUGCGCAUGGC (ssRNA, 3' idT; 2'-OMe at 1-13,16,19,20,23,28,30-40; 2'-F at U14,U18,U21,U22,U25,C26,C27,C29; 2'-OH at G15,G17,A24) [SEQ ID NO: 7-5]			< 2	
GCCAUCGCAAUGGUGAGUGGUUUAUCCGCCUGCGCAUGGC (ssRNA, 3' idT; 2'-OMe at 1-14,16,19,20,23,28,30-40; 2'-F at U18,U21,U22,U25,C26,C27,C29; 2'-OH at G15,G17,A24) [SEQ ID NO: 7-6]			< 2	
GCCAUCGCAAUGGUGAGUGGUUUAUCCGCCUGCGCAUGGC (ssRNA, 3' idT; 2'-OMe at 1-13,16,19,20,23,27,28,30-40; 2'-F at U14,U18,U21,U22,U25,C26,C29; 2'-OH at G15,G17,A24) [SEQ ID NO: 7-7]			< 2	
GCCAUCGCAAUGGUGAGUGGUUUAUCCGCCUGCGCAUGGC (ssRNA, 3' idT; 2'-OMe at 1-13,16,19,20,23,28-40; 2'-F at U14,U18,U21,U22,U25,C26,C27; 2'-OH at G15,G17,A24) [SEQ ID NO: 7-8]			< 2	
GCCAUCGCAAUGGUGAGUGGUUUAUCCGCCUGCGCAUGGC (ssRNA, 3' idT; 2'-OMe at 1-13,16,17,19,20,23,28,30-40; 2'-F at U14,U18,U21,U22,U25,C26,C27,C29; 2'-OH at G15,A24) [SEQ ID NO: 7-9]			4.7	
